We go through three molecules from PMC9050506 (RSC Advances, 2020).

Assay [1] concerns dimannosylated peptide P2 (DM). Format: binding.
The conditions of assay [2]: binding partner not given; cited from earlier work.

For “CVN2L0-V2: CVN2L0 variant with one C58E–C73R substitution, three disulfide bonds”, the “Rmax, binding to DM” value in assay [1] (SPR sensorgrams Fig. 3E-F) is on record as 132 RU.

B1: wild-type CV-N: 11 kDa lectin originating from Nostoc ellipsosporum (protein, UniProt P81180 1-101, looked up)
Cyanovirin-N: LGKFSQTCYNSAIQGSVLTSTCERTNGGYNTSSIDLNSVIENVDGSLKWQPSNFIETCRNTQLAGSSELAAECKTRAQQFVSTKINLDDHIANIDGTLKYE
With B1, the dissociation constant Kd in assay [2] is 5.7 nM.

B2: CVN2L0-V4: CVN2L0 variant with Cys–Cys mutagenesis to Trp–Met and Glu–Arg, two disulfide bonds (protein)
chain: LGKFSQTCYNSAIQGSVLTSTCERTNGGYNTSSIDLNSVIENVDGSLKWQPSNFIETWRNTQLAGSSELAAEMKTRAQQFVSTKINLDDHIANIDGTLKYELGKFSQTCYNSAIQGSVLTSTCERTNGGYNTSSIDLNSVIENVDGSLKWQPSNFIETERNTQLAGSSELAAERKTRAQQFVSTKINLDDHIANIDGTLKYE
modifications: left off: His6, N-terminal, state not stated
Consider B2, for which, in assay [1] (SPR, listed as V4), the “binding to DM (in words)” value was “showed binding”.

What is called Kd is the free concentration of one partner at which half of the binding sites on the other are occupied at equilibrium, for simple one-to-one binding.
